Assay results published in the DeepSol protein solubility set.

Test: soluble on expression in E. coli; label from the status in PepcDB or PDB records

Sequence	soluble on expression in E. coli
MSLQTSDQYSIQEVVDAGHGFFGETTGGLAKVVERAFQQYGLPNGYILGQEGSGAFVAGLTYGEGTLYTKNAGQHPVFWQGPSLGLDYGGQGTRAMMLVYNLPSVDALYRRYGGVSGSAFIVAGVGMTYLKSSDVTLAPIRTGIGARLGINVGYLKLTQQPTWNPFEGHHHHHH	soluble
MSLQYQNQDNFPERIEYLVDKLNGPSEFARKTGVTLSTITRWRKGEADPSRSNLVKIAEVTGVSIEWLATGKIKEEKTTEEKPAGSLVSRAFERMQAMLEEGVSMIDSYSSINVSAGFGSFNEGITQPDGQEPYSDELLTSLGVKADNCAVFWANGNSMLPTINNYDQMLVDLSRKEIQGDRIYLVQNGESVWVKRVKMEWDGISLISDNKEEYPPISITGENAQNLQIIGQVVHIGHSLIEGHHHHHH	soluble
MSLRAALADLHASIVSARKAPFSDRPIEGSLERCLAALAPLCRRARITRLGDLTGLDRLGLPVMQAVRPAALSEVTSLGRGLSRAEAAVGALMESLERYFAEAIPAERTFLATADQLEVTDGLFENLVVPEWRGKWRQRTIAWIEGIDVVGGSAYPVPLELVHTRYSEPQPAHDGAFLRTTTGLACHTSRHGAFLHGLWECLERDAIARAFGTHGFFDRWRIAPCGLGDGVDHIRSLAGARGISFALWLAPSPAAVPVVWCQTVEAGHGEPILALPTEGYAAGPSIEMAAASAMLEALSARAGAISGARDDQTREHYRRSTDAAVAKARELVLADAASKPGEATYATIPDPGTLLDRVVEAGLGPVLAIPVGVDEEAGVHCVRTVLPGASPFFVLREGHHHHHH	not soluble
MSLRAGVTGGPQIITKVITMIKFVLDTSIFVNPDVRKKFGETPTEAMKTFLHYAENLFGKVEFYMPPGIYRELMHFVEEEEVSPDIELYIIKKPPNVHDIKIPAFVVYELIEDIRRRVDKGLRVAEKAVRESVIDTSNVDKIIQKLRRNYRKALREGILDSKEDFELILLAKEIDGIIVSADVGILTWAEKMGIKWVDAFKFKEVLSELVEKFKRSESEKERKEGHHHHHH	not soluble
MSLRGNFFSFVRISGQSMSPNLVNNQIVLLEKKANVSRGTVIVSKTNNLQKQNTGVQDIALRVVALPGDKVNYKKGQLYVNGKKVNQSYISSQVKTETGMSIDTGWSINSLSLSKNWPKSQRNIKKVQKNSYFVLADNRIDPVDSRQYGLIKKRQIEGVVKVFFLGNKNKDEGHHHHHH	not soluble
MSLRILYLDPFSGISGDMFLGLLVDLGVDPEKIKSRLEKLNVEFDLVVKKVNKKGVTATKVDVVFPRKEHHEDHIVSDHDHHHHHGRHLSEIVEVLSRLEDPLKEKAIRMFEALAEAESKIHGLSKEKVHFHEVGAMDAVIEIAGAVVGLELLEVEKVFCGTVNTGSGFVMTEHGRYPVPAPATAELLKGIPIYMDQKVRAELVTPTGAVILKILVDEFRTPILRVEKVGYGAGTMDLEIPNVLRGYLGYIEPSERTGDVLIETNVDDMNPQLFGHLMERLFEAGAKDVFFTPIYMKKNRPAVKVSVLCHESKKDEILKLLFKESTSIGARVFYPEKVEATRTLKTVKTEYGEIPVKIASFDSEIVNISPEYEACKKVAQEKGIPLKEVYRAVYKSVSEVRNDVEGHHHHHH	soluble
MSLRINLTSEKTLKEASTSMAPNVLKGNVIKNKAVASGKYVPFFGSSELSRFSAFHPSVLSEKYQRNYRPFLLGEAGTQSLTQAMVIHSMGDAIANKKAVFILSPQWFVKKGVPNDSFGAHYSQLQTYQWLANLTELTSGDQYLAQRLTKFPVVQKDKVLMETLANLQAGQLPQRSQRDYFIMNLRFLNREDELFSQIGMVSREPIVEKDMKQLPATYNFNELDQLAGKIAAKAINNNKFEISNGFYRQRIKPVLPKLAHSQKKWDYRFSPEYGDFQAALEQLAEKNVDVLFVIPPVNKRWSDYTGLSQDMLQQVARKLKYQLQEQGFTNIADFSTCSNERYFMADTIHLGWRGWLAVDRQVDEFMKQPASKKLAYQIDDRFYQTDWQQQNPLVLPQFEGHHHHHH	soluble
MSLRIQDGTMRYTYKGVPTYKNPFDLALYQMLLWQQKPRTLIEIGSKWGGSALWFADMMCSFGVDCVIHSIDITPPSISVPGVTFHRGDGRDLAATLPADLMESLPRPIFVIEDADHHCETTLAVLRFFDRWLVAGEYIAVEDGIVDDLYGPEFVARLMGGPRRAVELFLRDRGQNYEIDTGLCDHFGTNVTWNVNGYLRRVREGHHHHHH	not soluble
MSLRIRVPATTANLGPGFDSCGLALTLYLTLDIGAEADSWYIEHNIGGGIPHDETNVIIETALNLAPNLTPHHLVMTCDIPPARGLGSSSAAVVAGIELANTLAELNLSKEEKVRIAAEIEGHPDNVAPAVLGNWVVGAKLDGEDFYVRHLFPDCALIAFIPKAELLTSESRGVLPDTLPFKEAVQASSIANVMIAAILRNDMTLAGEMMERDLWHEKYRSQLVPHLAQIRDVAKNQGAYAACLSGAGPTVLVFAPRNLANKLQTSLQTLEIDADVLLLDVEGSGAEVFREGHHHHHH	soluble
MSLRKPPLHMLPLGGCGEIGMNFTLYGHQDHWIVVDCGMMIRQDLPQAPLQVPNVDMLASQNIVPRAIVVTHGHEDHIGAIAWLWPRWQCPVHATPLAAGLLRLRFAEQQLPTSAIQVITPGDAMESGPFDIRFLPLPHSIPESCALLLTTPQHRILHTGDWKLDPEPLIGKPASPQRFQALAPVDLVVGDSTNAPVPGHSRSEGEVARALETTIGACPGRVIVSCFASNLARILALGRAAHACGRRVSLMGRSMERMVGVARGLGYLEDFPPLVPVRDLGYLPPEEVLVIATGSQGEPRAALSRLAQGRHADFELHPGDSVIFSAKAIPGNELLIERLQAGLKRAKVTIFDERSHPELHASGHPAQAELRRFYEWVKPRRLLPVHGEQQHQQAHRALAESLGIEVPWIPRNGDMLRLDAEGLHCESRHSLAPHIVTQNRIHPLEGLRAPEASSMHRRSGILSLTLPVVRQSTGWVRIGRLLWDTSHDLPLDDVALADWVDEQLAGHDADTIVTLRQRLHGPLMHWLGDHLRHLPDVHLHIMAAEGDTVYDAEGHHHHHH	soluble
MSLRLVKTALTIAGSDSGGGAGIEADLKTFTAFGVHGLVAITSVTAQNTQAVTAIHDIPPDVVSEQIRAVAEDIGVDAAKTGMLSNAEIIKAVAKTVKNYDFPLVVDPVMIAKSGAPLLREDAVDALIKYILPLATLVTPNRFEAEKLSGMKIRTVEDAKIAAKKIAEETGAKAVIVKGGHIEGEEAIDVLYHNGSYRLYRAPKVEGCTHGTGCSFSAAITANLAKGFGLEDAIEVAKKFITLGIAMGHRIGHGHCPVNQSAWIEIPAEKWRIYEELTRAVREFEEMNPVKFIPEVGTNFVYSLPLPYARTRDDVAGVKGRIVRVGNEVRAVGPVEFGASDHLARAVLTFMKFYPEYRSAINIRYSEETVRLAEEQGLVVSFYDRREEPEEIKEREGATIPWGIESAIKRVKQRPDVIYHLGDVGKEPMILIFGRNPREVLDKLRLEGHHHHHH	soluble
MSLRNDAYSTLRVSSEHGVARIILDNPPVNVIGATMMRELRTVLTTLADDSSVRVIVFSSADPEFFLAHVDMRIGEKMDALQELAASAPADVNVFQAVGELIRHQPQVTIVKLAGKARGGGAEFVAAADMAFAAAETAGLGQIEALMGIIPGGGGTQYLRGRVGRNRALEVVLTADLFDAETAASYGWINRALPADELDEYVDRVARNIAALPDGVIEAAKRSLPADDLKEGLLGENDAWAATFSLPAAQQLISGGLKDGAQTPAGERDLEGLMRSVAREGHHHHHH	soluble
MSLRNVLQDYLDEHSFRVVVKKKKNYLTYEGLQDRYAYILKSGIIKTSVISKDGREFNLRYINNLEIVSLLRDEYSEFIDAPFNIRIESPQAELYQIDRVQFWRDINNSKDLQMYVKEYYRDRLMHSMKKMQQMLMNGKFGAVCTQIYEMYDSFGVETEEGILIDFVVTNEEIAHFCGITSASSVNRMMQQLKELGAIELRNRKILIKDLDMIRDNEGGSHHHHHH	soluble
MSLRPQFEREQWLNLNGTWTFDFDFGKSGKDRRLQSAEKFDKNITVPFCPESKLSGVGYTDFIEQMWYQRNITIPSDWNGKKIFLNFGAVDYCAEIYVDGKFVQRHFGGSSSFAVDLTRYVTPGKTHNLVVFVQDDLRSGLQTGGKQCGNYYSGGCSYTRTTGIWQTVWMEAVSTDGLKSVFVRPDIDQKQLIIEPEFYNESANTLEIILKDGNKTVAKKSVNCANSSVVVLPVKNMKLWSPEDPFLYDLVYQVKDAKGNVLDEVKSYAGMRKVHTANGRFYLNNQPYFQRLVLDQGFYPEGIWTAPSDEDLKNDIVLGKEAGFNGARLHQKVFEERYYYWADKLGYITWGESASWMLDVNKELAARNFLGEWSEVVVRDRNHPSLVTWTPFNETWGGGPDAYVRLVRDVYNITKAIDPTRPVNDASGDNHVITDIWSVHNYEQDRAKLTEQLKMEEGKEPYRNARDKDFLAVYEGQPYMVDEFGGIPWMAEKDRKNSWGYGGMPENAEAFYKRLEGQIDAFIDSPHVTGFCYTQLTDVEQEKNGIYYYDRTPKLDMKRIKAIFEKIKEGHHHHHH	soluble
MSLRPTMADVAREAGVSLSTVDRVLNLRADVRTDTAQRIAAAAALLGFHAKGVIEQRILNDKPTVRLGFLLQKSGVAFYKGLAQALSNAAATFTRARVQVVIGYLDDLDPATVAQRLLALGDQVDGVGMVAVDHPRVRDAVASLQVAGVPVVALISELAGLGSASYVGVDNRLMGRTAGWFVTRLAGSPGSAAVMVSSQRFQCQELCEMSFRSYLSSHSTDWELLASRLTLEDDDFAYGNALDLLSGEPELSALYVAGGGVAGVLRALRELQQQQIRLPVVVCHDLTPLTREALKADLVQVVLSHPIVQVAEQTVRALVAASSDLTRVARVTVPIQVDVSESIAEGHHHHHH	soluble
MSLRQAHFLKGKDAMNNPSVIPAFDFREMVTTLDNKIITTSLKVADYFGKRHKDVLRAIRNLKCSDDFTQRNFAPIDFIDKNGDVQPMYNITRDGCMMLVMGFTGKTAAAVKECYINAFNWMAEQLNRRMAMGEEGHHHHHH	soluble
MSLRQRFVLDTTAITDAGLRIKEGYESLCESAAEVLDLIALARLKLDISCYIPYPSVYTELTSFLKRYGCDEEIFTKLDTWLVKKTPNRYEVKIPAAIFYEYIITVRQKMNRGRRLAEEYILESSAITAKLEDKSKIEEEIGALISKFRDKYRAVMRQGILDSAPDLDVLLLAKELEAGVVSSDAGIRKWSERLGLRFVEAAKFPRMLKEYLKLMGSKDIVGWFESEEDEGHHHHHH	not soluble
MSLRSSFRVGVTEDRNKKCRRTMEDTHAYLYNFLGNPVPSAQNDDSDQSSHPSDASPKTGELTPIVETDNGYFAIFDGHAGTFAAQWCGKKLHLILEDVMRKNINAPVPELLDQTFTSVDQQLEKLPVKNSGCTAVVALLRWEDRIPTPSSVTGSSAIGPAAVAATKAGADSKADDTPTQEAAATPVPAIPPKLREKAIRQRVLYTANVGDARVILCRNGKALRLSYDHKGSDENEGRRIANAGGLIMNNRVNGVLAVTRALGDAYIKDLVTGHPYTTETVIQPDLDEFIILASDGLWDVCSDQEAVDLIRNVSDAQEASKILVDHALARFSTDNLSCMVIRLYADREGHHHHHH	soluble
MSLRSTKTIHVISCHAEGEVGDVIVGGVAPPPGETLWEQRSFIARDQTLRNFVLNEPRGGVFRHVNLLVPPRHPEADAAFIIMEPEDTPPMSGSNSICVSTVLLDGGIVPMIEPITEMVLEAPGGLVRVKAECRNGKAERIFVQNVTSFADKLSVPLDVEGIGTLTVDTAYGGDSFVVVDAEALGFAIVEDEAKDIARLGVRITNAANEQLGFSHPENPDWNHISFCAFCGPLSQTPTGLTGRSAVAIQPGKVDRSPTGTAVSARMALMAARGQMTIGDTFEAVSIIGSSFTGRIVSQQMAGDRPGIVPEISGRGWITGIHQHMLDPSDPWPGGYKLSDTWGAEGHHHHHH	soluble
